In PMC4210636 (Chemistry & Biology, 2014):

What was measured:
[1] = target: T1, ADAMTS-5 lacking the C-terminal thrombospondin domain (UniProt Q9UNA0 262-874); test: steady-state enzyme inhibition kinetics
T1 sequence (looked up): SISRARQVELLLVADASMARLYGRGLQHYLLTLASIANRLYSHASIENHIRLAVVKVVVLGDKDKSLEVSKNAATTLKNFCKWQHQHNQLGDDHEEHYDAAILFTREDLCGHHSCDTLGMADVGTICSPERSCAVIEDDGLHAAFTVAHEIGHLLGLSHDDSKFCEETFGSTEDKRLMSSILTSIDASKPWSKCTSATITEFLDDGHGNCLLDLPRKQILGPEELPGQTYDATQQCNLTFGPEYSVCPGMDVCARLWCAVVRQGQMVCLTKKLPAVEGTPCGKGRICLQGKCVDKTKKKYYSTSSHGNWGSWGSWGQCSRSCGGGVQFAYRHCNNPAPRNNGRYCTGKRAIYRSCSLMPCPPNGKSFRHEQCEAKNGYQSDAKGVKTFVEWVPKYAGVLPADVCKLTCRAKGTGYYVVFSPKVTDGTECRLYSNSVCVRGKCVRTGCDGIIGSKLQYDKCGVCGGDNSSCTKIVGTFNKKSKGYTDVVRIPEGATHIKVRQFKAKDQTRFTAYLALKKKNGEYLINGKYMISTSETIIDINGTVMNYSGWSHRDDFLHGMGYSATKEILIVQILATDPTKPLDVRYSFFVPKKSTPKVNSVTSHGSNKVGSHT

[2] = target: LRP-1 ectodomain (low-density lipoprotein receptor-related protein 1) (UniProt Q07954 20-4419); test: ELISA
Sequence of LRP-1 ectodomain (low-density lipoprotein receptor-related protein 1) (Q07954 20-4419): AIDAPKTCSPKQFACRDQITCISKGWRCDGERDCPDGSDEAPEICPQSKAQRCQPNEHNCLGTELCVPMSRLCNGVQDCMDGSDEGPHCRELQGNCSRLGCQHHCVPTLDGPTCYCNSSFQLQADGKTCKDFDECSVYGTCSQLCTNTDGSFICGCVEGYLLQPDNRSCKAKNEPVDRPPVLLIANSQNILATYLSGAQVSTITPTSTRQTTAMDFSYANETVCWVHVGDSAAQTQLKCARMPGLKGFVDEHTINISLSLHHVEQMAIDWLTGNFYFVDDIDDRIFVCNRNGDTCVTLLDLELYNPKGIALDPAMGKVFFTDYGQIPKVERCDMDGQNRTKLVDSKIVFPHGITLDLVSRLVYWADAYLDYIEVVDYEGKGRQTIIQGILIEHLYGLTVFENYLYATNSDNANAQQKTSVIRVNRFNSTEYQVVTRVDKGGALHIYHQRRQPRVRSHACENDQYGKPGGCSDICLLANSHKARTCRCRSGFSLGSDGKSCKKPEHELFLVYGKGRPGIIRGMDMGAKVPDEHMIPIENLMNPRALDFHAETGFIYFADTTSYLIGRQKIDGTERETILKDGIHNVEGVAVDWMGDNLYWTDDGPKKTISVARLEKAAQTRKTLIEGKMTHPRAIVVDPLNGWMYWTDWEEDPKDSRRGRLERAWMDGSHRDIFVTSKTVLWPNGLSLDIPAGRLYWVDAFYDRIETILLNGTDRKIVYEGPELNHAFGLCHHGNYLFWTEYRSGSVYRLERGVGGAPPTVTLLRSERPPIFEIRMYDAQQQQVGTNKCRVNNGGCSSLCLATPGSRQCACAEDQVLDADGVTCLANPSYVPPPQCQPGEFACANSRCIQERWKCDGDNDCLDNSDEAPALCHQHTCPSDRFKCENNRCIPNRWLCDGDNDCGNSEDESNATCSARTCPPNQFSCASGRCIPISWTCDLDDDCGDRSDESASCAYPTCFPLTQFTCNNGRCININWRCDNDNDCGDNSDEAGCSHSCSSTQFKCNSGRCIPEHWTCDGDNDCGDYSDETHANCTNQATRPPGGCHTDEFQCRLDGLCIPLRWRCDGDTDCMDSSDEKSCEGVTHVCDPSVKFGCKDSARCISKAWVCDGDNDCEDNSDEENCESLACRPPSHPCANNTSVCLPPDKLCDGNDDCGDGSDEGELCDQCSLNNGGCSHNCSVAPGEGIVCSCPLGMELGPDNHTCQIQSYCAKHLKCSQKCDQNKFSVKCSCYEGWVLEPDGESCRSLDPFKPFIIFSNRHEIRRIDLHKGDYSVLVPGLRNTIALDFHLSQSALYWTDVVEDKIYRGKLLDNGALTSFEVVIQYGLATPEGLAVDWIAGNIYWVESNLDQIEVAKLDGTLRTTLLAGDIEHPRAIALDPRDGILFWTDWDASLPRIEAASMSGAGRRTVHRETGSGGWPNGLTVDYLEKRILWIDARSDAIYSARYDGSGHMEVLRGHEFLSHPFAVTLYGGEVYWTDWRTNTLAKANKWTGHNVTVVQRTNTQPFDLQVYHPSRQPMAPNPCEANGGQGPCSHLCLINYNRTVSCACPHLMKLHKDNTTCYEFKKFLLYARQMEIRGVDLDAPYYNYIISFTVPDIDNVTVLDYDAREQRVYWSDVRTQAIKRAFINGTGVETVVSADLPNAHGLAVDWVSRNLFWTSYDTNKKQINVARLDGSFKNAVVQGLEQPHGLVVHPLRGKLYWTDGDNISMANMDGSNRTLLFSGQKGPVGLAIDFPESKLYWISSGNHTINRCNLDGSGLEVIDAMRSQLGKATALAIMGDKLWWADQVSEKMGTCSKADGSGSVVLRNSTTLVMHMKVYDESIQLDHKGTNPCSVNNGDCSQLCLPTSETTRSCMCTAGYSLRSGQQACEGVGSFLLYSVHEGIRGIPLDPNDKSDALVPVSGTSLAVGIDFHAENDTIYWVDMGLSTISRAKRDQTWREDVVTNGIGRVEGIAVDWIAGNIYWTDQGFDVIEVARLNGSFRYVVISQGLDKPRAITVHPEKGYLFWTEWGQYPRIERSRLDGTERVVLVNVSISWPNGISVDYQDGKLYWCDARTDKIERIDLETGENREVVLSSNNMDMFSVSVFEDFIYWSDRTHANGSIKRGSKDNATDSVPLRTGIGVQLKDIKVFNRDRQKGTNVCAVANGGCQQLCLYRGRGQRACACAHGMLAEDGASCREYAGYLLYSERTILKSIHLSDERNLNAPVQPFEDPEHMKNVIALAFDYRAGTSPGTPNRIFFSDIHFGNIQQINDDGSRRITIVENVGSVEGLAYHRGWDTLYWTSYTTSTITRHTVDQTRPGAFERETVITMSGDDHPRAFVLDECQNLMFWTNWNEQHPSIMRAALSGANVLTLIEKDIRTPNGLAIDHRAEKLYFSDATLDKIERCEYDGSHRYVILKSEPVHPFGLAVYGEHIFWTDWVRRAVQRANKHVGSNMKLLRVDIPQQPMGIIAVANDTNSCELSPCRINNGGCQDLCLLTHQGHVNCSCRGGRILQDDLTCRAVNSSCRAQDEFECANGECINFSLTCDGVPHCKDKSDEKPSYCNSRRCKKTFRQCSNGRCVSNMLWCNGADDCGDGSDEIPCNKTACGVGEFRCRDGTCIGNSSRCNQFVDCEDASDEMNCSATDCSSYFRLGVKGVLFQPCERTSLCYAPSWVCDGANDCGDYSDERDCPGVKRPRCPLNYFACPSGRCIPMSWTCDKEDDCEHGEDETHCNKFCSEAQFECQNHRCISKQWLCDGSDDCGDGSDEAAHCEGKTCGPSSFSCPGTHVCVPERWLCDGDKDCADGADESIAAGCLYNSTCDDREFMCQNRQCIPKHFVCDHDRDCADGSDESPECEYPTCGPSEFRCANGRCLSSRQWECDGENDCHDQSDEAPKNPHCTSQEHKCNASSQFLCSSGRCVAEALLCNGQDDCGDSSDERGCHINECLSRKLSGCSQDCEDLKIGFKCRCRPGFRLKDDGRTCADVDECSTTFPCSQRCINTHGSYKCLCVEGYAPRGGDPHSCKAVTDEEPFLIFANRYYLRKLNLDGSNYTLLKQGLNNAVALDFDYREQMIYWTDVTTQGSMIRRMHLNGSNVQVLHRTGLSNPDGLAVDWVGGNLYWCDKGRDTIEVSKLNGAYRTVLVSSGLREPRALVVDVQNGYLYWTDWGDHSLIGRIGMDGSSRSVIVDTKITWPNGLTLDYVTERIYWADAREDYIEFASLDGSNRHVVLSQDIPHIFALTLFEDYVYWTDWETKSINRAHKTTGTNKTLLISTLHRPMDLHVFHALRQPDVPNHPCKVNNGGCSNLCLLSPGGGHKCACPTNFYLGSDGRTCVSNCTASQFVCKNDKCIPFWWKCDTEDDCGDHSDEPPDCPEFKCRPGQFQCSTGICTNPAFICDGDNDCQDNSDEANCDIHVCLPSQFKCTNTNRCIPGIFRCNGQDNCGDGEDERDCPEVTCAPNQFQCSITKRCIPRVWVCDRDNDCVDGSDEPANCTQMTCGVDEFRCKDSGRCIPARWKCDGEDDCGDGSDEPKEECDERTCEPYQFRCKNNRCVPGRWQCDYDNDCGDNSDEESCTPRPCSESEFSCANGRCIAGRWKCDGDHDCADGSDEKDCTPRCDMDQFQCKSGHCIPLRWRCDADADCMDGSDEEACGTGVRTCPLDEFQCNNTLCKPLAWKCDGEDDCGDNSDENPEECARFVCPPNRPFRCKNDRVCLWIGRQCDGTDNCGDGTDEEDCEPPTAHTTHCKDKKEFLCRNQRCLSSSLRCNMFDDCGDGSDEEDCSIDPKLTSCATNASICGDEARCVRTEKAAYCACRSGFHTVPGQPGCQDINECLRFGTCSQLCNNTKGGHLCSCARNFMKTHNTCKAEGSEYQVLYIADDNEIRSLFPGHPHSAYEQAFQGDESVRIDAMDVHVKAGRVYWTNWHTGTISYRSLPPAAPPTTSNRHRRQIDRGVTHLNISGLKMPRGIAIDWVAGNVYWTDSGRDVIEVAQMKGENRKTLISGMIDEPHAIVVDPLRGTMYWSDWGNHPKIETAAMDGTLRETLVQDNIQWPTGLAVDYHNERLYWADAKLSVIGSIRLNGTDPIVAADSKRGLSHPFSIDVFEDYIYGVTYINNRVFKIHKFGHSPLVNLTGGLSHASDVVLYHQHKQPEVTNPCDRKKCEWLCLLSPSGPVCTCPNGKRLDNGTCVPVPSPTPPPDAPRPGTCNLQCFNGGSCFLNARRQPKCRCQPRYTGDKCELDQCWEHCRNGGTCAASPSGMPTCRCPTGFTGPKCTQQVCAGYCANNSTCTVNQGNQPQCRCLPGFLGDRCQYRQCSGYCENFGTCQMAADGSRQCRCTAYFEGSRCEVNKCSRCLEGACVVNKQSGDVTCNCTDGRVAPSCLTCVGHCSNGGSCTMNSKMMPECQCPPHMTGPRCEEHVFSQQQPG

B1: C-terminally FLAG-tagged human TIMP-3 (tissue inhibitor of metalloproteinases 3) (natural protein, UniProt P35625 24-211, looked up)
chain: CTCSPSHPQDAFCNSDIVIRAKVVGKKLVKEGPFGTLVYTIKQMKMYRGFTKMPHVQYIHTEASESLCGLKLEVNKYQYLLTGRVYDGKMYTGLCNFVERWDQLTLSQRKGLNYRYHLGCNCKIKSCYYLPCFVTSKNECLWTDMLSNFGYPGYQSKHYACIRQKGGYCSWYRGWAPPDKSIINATDP
Work on B1 yielded a Ki [1] of 1.36 ± 0.02 nM and a Kd [2] of 28 ± 6 nM.
